Key:
Assay in all cases: cell-based or functional assay
[1] = biological target: HIV-1 Env of isolate MGRM-C-001 (HIV-1)
[2] = biological target: HIV-1 Env of isolate MGRM-C-002 (HIV-1)
[3] = biological target: HIV-1 Env of isolate MGRM-C-004 (HIV-1)
[4] = biological target: HIV-1 Env of isolate MGRM-C-005 (HIV-1)
[5] = biological target: HIV-1 Env of isolate MGRM-C-006 (HIV-1)
[6] = biological target: HIV-1 Env of isolate MGRM-C-007 (HIV-1)
[7] = biological target: HIV-1 Env of isolate MGRM-C-008 (HIV-1)
[8] = biological target: HIV-1 Env of isolate MGRM-C-009 (HIV-1)
[9] = biological target: HIV-1 Env of isolate MGRM-C-010 (HIV-1)
[10] = biological target: HIV-1 Env of isolate MGRM-C-012 (HIV-1)
[11] = biological target: HIV-1 Env of isolate MGRM-C-013 (HIV-1)
[12] = biological target: HIV-1 Env of isolate MGRM-C-014 (HIV-1)
[13] = biological target: HIV-1 Env of isolate MGRM-C-015 (HIV-1)
[14] = biological target: HIV-1 Env of isolate MGRM-C-017 (HIV-1)
[15] = biological target: HIV-1 Env of isolate MGRM-C-019 (HIV-1)
[16] = biological target: HIV-1 Env of isolate MGRM-C-020 (HIV-1)
[17] = biological target: HIV-1 Env of isolate MGRM-C-022 (HIV-1)
[18] = biological target: HIV-1 Env of isolate MGRM-C-023 (HIV-1)
[19] = biological target: HIV-1 Env of isolate MGRM-C-024 (HIV-1)
[20] = biological target: HIV-1 Env of isolate MGRM-C-025 (HIV-1)
[21] = biological target: HIV-1 92RW020 Env (pseudovirus) (HIV-1)
[22] = biological target: HIV-1 92TH021 Env (pseudovirus) (HIV-1)
[23] = biological target: HIV-1 92UG024 Env (pseudovirus) (HIV-1)
[24] = biological target: HIV-1 93IN905 Env (pseudovirus) (HIV-1)
[25] = biological target: HIV-1 94UG103 Env (pseudovirus) (HIV-1)
[26] = biological target: HIV-1 APV6 Env (pseudovirus) (HIV-1)
[27] = biological target: HIV-1 JRCSF Env (pseudovirus) (HIV-1) (UniProt P20871)
[28] = biological target: HIV-1 MGRM-A-010 Env (pseudovirus) (HIV-1)
[29] = biological target: HIV-1 MGRM-C-026 Env (pseudovirus) (HIV-1)
[30] = biological target: HIV-1 MGRM-C-027 Env (pseudovirus) (HIV-1)
[31] = biological target: HIV-1 MGRM-C-028 Env (pseudovirus) (HIV-1)
[32] = biological target: HIV-1 MGRM-D-018 Env (pseudovirus) (HIV-1)
[33] = biological target: HIV-1 NL43 Env (pseudovirus) (HIV-1)

Chain of 1443_C16 (PG16) (TCN-116) (antibody) (VH): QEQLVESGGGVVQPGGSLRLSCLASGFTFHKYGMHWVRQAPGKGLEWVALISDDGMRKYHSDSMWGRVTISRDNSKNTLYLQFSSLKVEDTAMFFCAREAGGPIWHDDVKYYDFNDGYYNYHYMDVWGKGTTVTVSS
Chain of 1443_C16 (PG16) (TCN-116) (antibody) (VL): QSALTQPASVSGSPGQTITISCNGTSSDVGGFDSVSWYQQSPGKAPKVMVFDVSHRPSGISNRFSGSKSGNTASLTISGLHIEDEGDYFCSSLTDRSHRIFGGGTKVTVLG

Row | Substance | IC50 [1] | IC50 [2] | IC50 [3] | IC50 [4] | IC50 [5] | IC50 [6] | IC50 [7] | IC50 [8] | IC50 [9] | IC50 [10] | IC50 [11] | IC50 [12] | IC50 [13] | IC50 [14] | IC50 [15] | IC50 [16] | IC50 [17] | IC50 [18] | IC50 [19] | IC50 [20] | also measured
1 | 2F5 (antibody) | > 50 µg/mL | 44.7 µg/mL | > 50 µg/mL | > 50 µg/mL | > 50 µg/mL | > 50 µg/mL | > 50 µg/mL | > 50 µg/mL | > 50 µg/mL | > 50 µg/mL | 18.4 µg/mL | > 50 µg/mL | > 50 µg/mL | > 50 µg/mL | > 50 µg/mL | > 50 µg/mL | > 50 µg/mL | > 50 µg/mL | > 50 µg/mL | > 50 µg/mL | –
2 | 2G12 (antibody) | 2.93 µg/mL | > 50 µg/mL | > 50 µg/mL | > 50 µg/mL | > 50 µg/mL | > 50 µg/mL | > 50 µg/mL | > 50 µg/mL | > 50 µg/mL | > 50 µg/mL | > 50 µg/mL | > 50 µg/mL | 1.75 µg/mL | > 50 µg/mL | > 50 µg/mL | 18.6 µg/mL | > 50 µg/mL | > 50 µg/mL | > 50 µg/mL | > 50 µg/mL | –
3 | 4E10 (antibody) | 5.66 µg/mL | 18.2 µg/mL | 24.2 µg/mL | 16.4 µg/mL | 4.94 µg/mL | 5.84 µg/mL | 2.97 µg/mL | 0.56 µg/mL | 11 µg/mL | 0.44 µg/mL | 2.1 µg/mL | 2.48 µg/mL | 2.52 µg/mL | 1.47 µg/mL | 3.49 µg/mL | 2.8 µg/mL | 5.71 µg/mL | 1.95 µg/mL | 22.6 µg/mL | 5.58 µg/mL | –
4 | 1443_C16 (PG16) (TCN-116) (antibody) | 16.8 µg/mL | 28.3 µg/mL | 5.09 µg/mL | 2.55 µg/mL | 2.62 µg/mL | 0.05 µg/mL | > 50 µg/mL | > 50 µg/mL | > 50 µg/mL | 0.48 µg/mL | > 50 µg/mL | > 50 µg/mL | 0.26 µg/mL | 1.8 µg/mL | 0.002 µg/mL | > 50 µg/mL | 0.25 µg/mL | 0.09 µg/mL | 0.04 µg/mL | 0.04 µg/mL | –
5 | 1495_C14 (PGC14) (antibody) | > 50 µg/mL | > 50 µg/mL | > 50 µg/mL | > 50 µg/mL | > 50 µg/mL | > 50 µg/mL | > 50 µg/mL | > 50 µg/mL | > 50 µg/mL | > 50 µg/mL | > 50 µg/mL | > 50 µg/mL | > 50 µg/mL | > 50 µg/mL | 12 µg/mL | > 50 µg/mL | > 50 µg/mL | > 50 µg/mL | > 50 µg/mL | > 50 µg/mL | –
6 | 1496_C09 (PG9) (TCN-109) (antibody) | – | – | 1.18 µg/mL | 2.98 µg/mL | 0.23 µg/mL | 0.09 µg/mL | – | – | 12.4 µg/mL | 0.24 µg/mL | – | 0.64 µg/mL | 0.5 µg/mL | 1.52 µg/mL | 0.01 µg/mL | – | 0.19 µg/mL | 0.51 µg/mL | 0.22 µg/mL | 0.17 µg/mL | neutralization IC50 (pseudovirus) [21]: 0.161 µg/mL; neutralization IC50 (pseudovirus) [22]: 0.103 µg/mL; neutralization IC50 (pseudovirus) [23]: 1.91 µg/mL; neutralization IC50 (pseudovirus) [24]: 0.048 µg/mL; neutralization IC50 (pseudovirus) [25]: 0.31 µg/mL; neutralization IC50 (pseudovirus) [26]: 0.214 µg/mL; neutralization IC50 (pseudovirus) [27]: 0.0048 µg/mL; neutralization IC50 (pseudovirus) [28]: 0.0375 µg/mL; neutralization IC50 (pseudovirus) [29]: 0.113 µg/mL; neutralization IC50 (pseudovirus) [30]: 2.45 µg/mL; neutralization IC50 (pseudovirus) [31]: 0.121 µg/mL; neutralization IC50 (pseudovirus) [32]: 2.04 µg/mL; neutralization IC50 (pseudovirus) [33]: 0.687 µg/mL
